What was measured:
[1] = target: T1, ribosomal protein L10 from Methanococcus thermolithotrophicus (Methanococcus thermolithotrophicus, UniProt O52705 1-338); test: native gel or EMSA
T1 sequence (looked up): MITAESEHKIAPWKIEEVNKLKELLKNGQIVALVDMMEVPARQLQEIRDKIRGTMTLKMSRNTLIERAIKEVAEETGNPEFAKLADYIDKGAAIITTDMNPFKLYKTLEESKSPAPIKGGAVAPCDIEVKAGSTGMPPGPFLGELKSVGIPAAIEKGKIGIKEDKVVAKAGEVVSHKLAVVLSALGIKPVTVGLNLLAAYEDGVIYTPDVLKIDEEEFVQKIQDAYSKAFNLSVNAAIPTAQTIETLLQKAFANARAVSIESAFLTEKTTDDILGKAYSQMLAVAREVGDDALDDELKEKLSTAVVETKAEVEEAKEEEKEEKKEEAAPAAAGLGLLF

[2] = target: T1, ribosomal protein L10 from …; test: SEC
[3] = target: T2, ribosomal protein L10 from Methanococcus vannielii (Methanococcus vannielii, UniProt P15826 1-336); test: native gel or EMSA
T2 sequence (looked up): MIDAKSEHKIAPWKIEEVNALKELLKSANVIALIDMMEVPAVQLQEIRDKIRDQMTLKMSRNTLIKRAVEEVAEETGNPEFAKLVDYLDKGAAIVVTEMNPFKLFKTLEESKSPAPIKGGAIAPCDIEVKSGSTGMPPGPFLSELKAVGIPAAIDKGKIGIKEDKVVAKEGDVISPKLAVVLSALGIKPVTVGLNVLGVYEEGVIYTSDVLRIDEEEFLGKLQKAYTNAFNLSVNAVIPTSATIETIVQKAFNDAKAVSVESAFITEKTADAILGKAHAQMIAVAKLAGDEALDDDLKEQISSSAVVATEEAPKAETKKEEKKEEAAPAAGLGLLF

[4] = target: T2, ribosomal protein L10 from …; test: SEC
[5] = target: T3, ribosomal protein L10 from Sulfolobus solfataricus (Sulfolobus solfataricus, UniProt P96039 1-338); test: native gel or EMSA
T3 sequence (looked up): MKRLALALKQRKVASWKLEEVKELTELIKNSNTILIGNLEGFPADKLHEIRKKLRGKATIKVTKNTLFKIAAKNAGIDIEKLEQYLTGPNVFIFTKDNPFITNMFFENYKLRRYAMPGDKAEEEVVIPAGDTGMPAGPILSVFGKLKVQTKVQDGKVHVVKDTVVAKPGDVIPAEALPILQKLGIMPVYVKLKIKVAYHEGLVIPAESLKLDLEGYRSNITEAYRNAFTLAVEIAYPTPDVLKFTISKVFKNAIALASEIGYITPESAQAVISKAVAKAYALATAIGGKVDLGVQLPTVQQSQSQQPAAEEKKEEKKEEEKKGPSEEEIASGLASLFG

[6] = target: T3, ribosomal protein L10 from Sulfolobus …; test: SEC
[7] = target: T4, ribosomal protein L10 from Thermus thermophilus (Thermus thermophilus, UniProt Q8VVE3 1-173); test: SEC
T4 sequence (looked up): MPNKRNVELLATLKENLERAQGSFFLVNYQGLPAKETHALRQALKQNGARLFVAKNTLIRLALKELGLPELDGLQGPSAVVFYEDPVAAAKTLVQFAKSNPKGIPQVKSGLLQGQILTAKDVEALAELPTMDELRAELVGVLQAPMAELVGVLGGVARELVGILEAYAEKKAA

[8] = target: T5, ribosomal protein L10 from Methanococcus jannaschii (Methanococcus jannaschii, UniProt P54049 1-338); test: native gel or EMSA
T5 sequence (looked up): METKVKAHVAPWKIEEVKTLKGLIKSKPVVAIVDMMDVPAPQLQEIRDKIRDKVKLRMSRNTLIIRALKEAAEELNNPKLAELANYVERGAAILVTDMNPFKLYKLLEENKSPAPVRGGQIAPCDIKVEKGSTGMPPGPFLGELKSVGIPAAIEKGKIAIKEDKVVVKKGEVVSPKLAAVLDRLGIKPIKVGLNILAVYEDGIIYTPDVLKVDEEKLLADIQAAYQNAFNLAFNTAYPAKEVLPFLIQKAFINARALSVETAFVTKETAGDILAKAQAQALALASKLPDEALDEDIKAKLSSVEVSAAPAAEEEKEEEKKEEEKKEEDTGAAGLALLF

B1: ribosomal protein L12 from Methanococcus thermolithotrophicus (natural protein, UniProt O52706 1-101, looked up)
chain: MEYIYASLLLHSAGKEITEDAVKAVLSAAGVEVEDARVKALVAALEGVDIEEAIEKAAMPVAAAAAPAAAPAEEPKEEKKEEKKEEDTTAAAAAGLGALFG
stoichiometry N [1]: ~4 L12 per L10
stoichiometry N [2]: 4 L12 per L10

B2: ribosomal protein L12 from Methanococcus vannielii (natural protein, UniProt P10623 1-99, looked up)
chain: MEYIYAALLLNSANKEVTEEAVKAVLVAGGIEANDARVKALVAALEGVDIAEAIAKAAIAPVAAAAPVAAAAAPAEVKKEEKKEDTTAAAAAGLGALFM
stoichiometry N [3]: ~4 L12 per L10
stoichiometry N [4]: 4 L12 per L10

B3: ribosomal protein L12 from Sulfolobus solfataricus (natural protein, UniProt P96040 1-106, looked up)
chain: MEYIYASLLLHSAKKEISEDALKNVLTAAGISVDEVRLKAVVAALKEVNIDEVLKNAAAMPVAVAAQPQATQAQPAAEEKKEEKKEEEKKGPSEEEIASGLASLFG
stoichiometry N [5]: ~4 L12 per L10
stoichiometry N [6]: 4 L12 per L10

B4: ribosomal protein L12 from Thermus thermophilus (natural protein, UniProt Q8VVE2 1-125, looked up)
chain: MALDIERIKEELSQATVLELKQLIDALKEAWGVTAAAPVAVAAAPAAGAAAAPAEEKTEFDVILKEAGAKKLEVIKELRAITGLGLKEAKDLAEKGGPVKEGVSKQEAEEIKKKLEAVGAVVELK
stoichiometry N [7]: 6 L12 per L10

B5: ribosomal protein L12 from Methanococcus jannaschii (natural protein, UniProt P54048 1-102, looked up)
chain: MEYIYAALLLHSAGKEITEDAIKAVLSAAGVEVDDARVKALVAGLEGVDIEEAIANAAMPVAAAPAAAAPAAAAEEKKEEEKKEEKKEEDTAAVAGLAALFG
stoichiometry N [8]: ~4 L12 per L10
